Target: PmMOR (Plantago major multisubstrate oxido-reductase) (Plantago major)
Assay: SEC; Superdex 200, 20 mM Tris pH 8.0, 100 mM NaCl, 1 mM TCEP; oligomeric state judged from the elution volume

stoichiometry N: 2
Substance: PmMOR (Plantago major multisubstrate oxido-reductase) (enzyme)
